# Test results from US20090180995A1, “NOVEL ANTICOAGULANT POLYPEPTIDES AND COMPLEX” (National University of Singapore, priority 2005, published 2009).
# “Also recorded” adds a separate entry of the source.
# T1: FVIIa (Homo sapiens, UniProt P08709)
# T1 construct: from tissue; host or cells: human plasma
# T1 sequence (P08709 61-212 limits assumed): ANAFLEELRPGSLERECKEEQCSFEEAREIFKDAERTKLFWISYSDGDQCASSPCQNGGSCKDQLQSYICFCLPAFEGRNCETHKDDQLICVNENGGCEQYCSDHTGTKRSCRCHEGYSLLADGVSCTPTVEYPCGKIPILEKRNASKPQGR
# T1 sequence (P08709 213-466 limits assumed): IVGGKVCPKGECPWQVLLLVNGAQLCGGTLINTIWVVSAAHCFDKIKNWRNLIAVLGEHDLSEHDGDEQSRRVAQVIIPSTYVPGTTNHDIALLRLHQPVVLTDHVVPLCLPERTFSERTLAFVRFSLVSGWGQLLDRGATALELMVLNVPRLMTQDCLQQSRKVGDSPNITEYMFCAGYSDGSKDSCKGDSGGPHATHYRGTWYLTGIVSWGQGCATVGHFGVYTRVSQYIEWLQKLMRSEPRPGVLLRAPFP
# Tests used:
# FVIIa-sTF = target: T2, FVIIa-sTF (Homo sapiens, UniProt P08709); experiment: Kinetics of inhibition of FVIIa-sTF amidolytic activity on S-2288; format: biochemical
# T2 construct: made in house; host or cells: Saccharomyces cerevisiae (sTF); human plasma (FVIIa)
# Procedure: Determination of kinetic constants for substrate hydrolysis—All studies were in assay buffer containing 50 mM Tris-HCl, pH 8.0, containing 150 mM NaCl, 10 mM CaCl2, and 1% BSA at 37° C. The kinetics of hydrolysis of the chromogenic substrate S-2288 by FVIIa-sTF was measured prior to examining the inhibitory effects of individual hemextins and the hemextin AB complex. Reactions were initiated by the addition of S-2288 (0-5 mM) to the individual wells of a 96-well plate containing FVIIa (30 nM) in complex with sTF (100 nM) in a final volume of 180 μl. Initial reaction velocities were measured as a linear increase in the absorbance at 405 nm (A405 nm) over 5 min, with a SPECTRAmax Plus® temperature-controlled microplate spectrophotometer (Molecular Devices, Sunnyvale, Calif.). The Km was derived from the nonlinear regression fit of the determined velocities, the value of which was 2.79 mM.
# Kinetics of inhibition—The inhibitory potency of anticoagulant complex was measured over a range of substrate concentrations. Reactions were initiated by the addition of S-2288 to premixed enzyme-cofactor and inhibitor in the wells of a microtiter plate. Reactions with FVIIa-sTF contained 0.0125-0.05 μM of inhibitor complex and 0 to 3 mM of S-2288.
# V=Vmax [S]/(1+[I]Ki)/{Km+[S]} (Eq. 1)
# [1] = system: hemextin A-hemextin B interaction; experiment: ITC, hemextin A-hemextin B interaction; format: binding, Hemachatus haemachatus
# FVIIa = target: T1, FVIIa; experiment: ITC, binding of hemextin AB complex to FVIIa; conditions: 37° C.
# Procedure: Isothermal titration calorimetry (ITC) studies—The interaction of anticoagulant hemextin AB complex with FVIIa was monitored with a VP-ITC titration calorimetric system (Microcal Inc., Northampton, Mass.). The instrument was calibrated using the built-in electrical calibration check. FVIIa (10 μM) in 50 mM Tris-HCl buffer and 10 mM CaCl2 (pH 7.4) in the calorimetric cell was titrated with reconstituted anticoagulant complex (0.2 mM) dissolved in the same buffer in a 250 μl injection syringe, with continual stirring at 300 rpm at 37° C. All the protein solutions were filtered and degassed prior to titration. […] The total heat content Q of the solution (determined relative to zero for the unliganded species) contained in the active cell volume, Vo, was calculated according to the following Equation 2, where K is the binding affinity constant, n is the number of sites, ΔH is the enthalpy of ligand binding, Mt and Xt is the bulk concentration of macromolecule and ligand, respectively, for the binding X+M ? […]
# The change in heat (ΔQ) measured between the completions of two consecutive injections is corrected for dilution of the protein and ligand in the cell according to standard Marquardt methods. The free energy change (AG) during the interaction was calculated by using the relationship: ΔG=ΔH−TΔS=[…], where T is the absolute temperature and R is the universal gas constant.
# T2 sequence (P13726 33-251 partner limits assumed, one chain of several): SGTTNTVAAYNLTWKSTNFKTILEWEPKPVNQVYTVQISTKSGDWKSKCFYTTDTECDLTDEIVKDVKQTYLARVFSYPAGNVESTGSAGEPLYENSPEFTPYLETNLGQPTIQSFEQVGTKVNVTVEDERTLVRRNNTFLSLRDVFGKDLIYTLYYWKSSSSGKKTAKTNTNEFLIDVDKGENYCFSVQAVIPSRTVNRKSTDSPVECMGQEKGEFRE
molecule,measurement,setting,value
"hemextin AB complex: synergistic 1:1 tetrameric complex of hemextin A and hemextin B, reconstituted from equimolar proteins (protein) chain 1: LKCKNKLVPFLSKTCPEGKNLCYKMTMLKMPKIPIKRGCTDACPKSSLLVKVVCCNKDKCN chain 2: LKCKNKVVPFLKCKNKVVPFLCYKMTLKKVPKIPIKRGCTDACPKSSLLVNVMCCKTDKCN",nature of inhibition of FVIIa-sTF activity,"FVIIa-sTF; S-2288, Lineweaver-Burk plots",non-competitively; also recorded: non-competitive inhibitor
same,Ki,"FVIIa-sTF; S-2288, secondary plot",25 nM
same,Kcat,FVIIa-sTF; [Inhibitor] 0.0125 μM,40.93 s⁻¹
same,Vmax,FVIIa-sTF; [Inhibitor] 0.0125 μM,7.37E−05
same,Kcat,FVIIa-sTF; [Inhibitor] 0.0250 μM,30.58 s⁻¹
same,Vmax,FVIIa-sTF; [Inhibitor] 0.0250 μM,5.51E−05
same,Kcat,FVIIa-sTF; [Inhibitor] 0.05 μM,20.87 s⁻¹
same,Vmax,FVIIa-sTF; [Inhibitor] 0.05 μM,3.75E−05
same,Ka,"[1]; 10 ° C., 50 mM Tris (pH 7.4)",640000 M⁻¹
same,Ka,"[1]; 25 ° C., 50 mM Tris (pH 7.4)",2.07e+06 M⁻¹
same,Ka,"[1]; 37 ° C., 50 mM Tris (pH 7.4)",2.23e+06 M⁻¹
same,Ka,"[1]; 37 ° C., 50 mM Tris (pH 7.4) + 35 mM NaCl",630000 M⁻¹
same,Ka,"[1]; 37 ° C., 50 mM Tris (pH 7.4) + 75 mM NaCl",330000 M⁻¹
same,Ka,"[1]; 37 ° C., 50 mM Tris (pH 7.4) + 100 mM NaCl",20000 M⁻¹
same,Ka,"[1]; 37 ° C., 50 mM Tris (pH 7.4) + 125 mM glycerol",320000 M⁻¹
same,Ka,"[1]; 37 ° C., 50 mM Tris (pH 7.4) + 150 mM NaCl",2000 M⁻¹
same,Ka,"[1]; 37 ° C., 50 mM Tris (pH 7.4) + 175 mM glycerol",200000 M⁻¹
same,Ka,"[1]; 37 ° C., 50 mM Tris (pH 7.4) + 250 mM glycerol",50000 M⁻¹
same,Ka,"[1]; 45 ° C., 50 mM Tris (pH 7.4)",1.97e+06 M⁻¹
same,"binding constant (Ka), hemextin AB complex formation",[1]; ITC,2.23e+06 M⁻¹
same,ΔG of binding to FVIIa,FVIIa,-7.543 kcal/M
same,K for the binding to FVIIa,"FVIIa; 50 mM Tris-HCl, 10 mM CaCl2 (pH 7.4)",411000 M⁻¹
